Measurements reported in PMC5215794.

How the values were obtained:
Test in all cases: cross-linking
[1] = biological target: VcINDY K316C (dimer interface cysteine mutant in the cysteine-free background) (Vibrio cholerae) (UniProt Q9KNE0)
[2] = biological target: VcINDY N90C (dimer interface cysteine mutant in the cysteine-free background) (Vibrio cholerae) (UniProt Q9KNE0)
[3] = biological target: VcINDY Q86C S95C (dimer interface cysteine mutant in the cysteine-free background) (Vibrio cholerae) (UniProt Q9KNE0)
[4] = biological target: VcINDY V68C S304C (dimer interface cysteine mutant in the cysteine-free background) (Vibrio cholerae) (UniProt Q9KNE0)

**Q.** With “VcINDY K316C (dimer interface cysteine mutant in the cysteine-free background) (from UniProt Q9KNE0 14-462) (natural protein)” as the substance, how does the stoichiometry N [1] read?
**A.** The stoichiometry N was 2.

**Q.** How did the stoichiometry N [2] turn out when “VcINDY N90C (dimer interface cysteine mutant in the cysteine-free background) (from UniProt Q9KNE0 14-462) (natural protein)” was run?
**A.** The stoichiometry N was 2.

**Q.** How did the stoichiometry N [3] turn out when “VcINDY Q86C S95C (dimer interface cysteine mutant in the cysteine-free background) (from UniProt Q9KNE0 14-462) (natural protein)” was run?
**A.** Its stoichiometry N is 2.

**Q.** How did the stoichiometry N [4] turn out when “VcINDY V68C S304C (dimer interface cysteine mutant in the cysteine-free background) (from UniProt Q9KNE0 14-462) (natural protein)” was run?
**A.** Its stoichiometry N is 2.
